Measurements: the supplement of paper PMC9170038

Tested on: MS2 coat protein
Assay: apparent KD of MS2 coat protein; designed switch direction (-1 OFF switch, 1 ON switch): -1; higher = weaker reporter binding
Method in brief: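 Designed RNA switches were transcribed on Illumina chips by stalled E. coli RNA polymerase and titrated with SNAP-549-labelled MS2 coat protein from 0.7 or 1.5 nM, doubling to 3 µM. Step length ran from 0.8–1.5 h at the lowest concentration to 10–20 min at the highest. The apparent KD is the median over clusters for each design, from curve-fitted normalised cluster fluorescence.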

[1] = Eterna round: R95, input ligand: FMN 200 uM
[2] = Eterna round: R95, input ligand: microRNA oligo, concentration not stated
[3] = Eterna round: R95, input ligand: none
[4] = input ligand: microRNA oligo, concentration not stated

Sequence	apparent KD of MS2 coat protein (input ligand: FMN 200 uM)	apparent KD of MS2 coat protein (input ligand: none)	apparent KD of MS2 coat protein [1]	apparent KD of MS2 coat protein [2]	apparent KD of MS2 coat protein [3]	apparent KD of MS2 coat protein [4]
GUCCUGGAAUAUCAGUCGCACAUGAGGAUCACCCAUGUCAUGGGUAGAUCAAUAAAUAAAGAUACUGCUCGUCUUAU [Cac sensor turnoff var1 sub3] (Eterna round: R97, puzzle: Sensor, turn-off variant 1)	186 nM	409 nM	–	–	–	–
CGUGACUGAGGAUAUCUAUAAUAUCACAUGAGGAUCACCCAUGUCCAGCGAAAGCUGGAGGGAGAAGGCAGUCACG [Fiskers Ex 5 - 29] (puzzle: Exclusion 5)	–	–	53 nM	127 nM	75.3 nM	–
CCGCUGUCAGGAUAUCGUGCAUACAACGAAAGUUCUAUGUGCGAGAAGGGACAUGAGGAUCACCCAUGUUUGCG [Omei Ex4 A20] (Eterna round: R97, puzzle: Exclusion 4)	41.3 nM	28.2 nM	–	–	–	–
UUUGUUUGCACAGGAUAUUGUUAUUUUAUUUUUCAAGAAGGGUGUACAUGAGGAUCACCCAUGUUAAGGUUUAAUCUUUCACUU [JR_ExcNG1_Sub010] (Eterna round: R96, puzzle: Exclusion NG 1)	346 nM	619 nM	–	–	–	479 nM
CUCCGGCGUGUAGGAUAUGGAUCCGAUUAGGAUCCAGAAGGACAUGAGGAUCACCCAUGUACAUGUCGGCGGUCGUCACCGGGC [salish99_ExNG1_r04_209] (Eterna round: R96, puzzle: Exclusion NG 1)	34 nM	20.1 nM	–	–	–	14.4 nM
UGAGUGCUGCGAGGAUAUACAUGAGGAUCACCCAUGUAAUCGUGUGAGGCUUUGCCUCACACGAAGUAGAAGGCGCAGUACUCU [JL ENG2 1.10] (Eterna round: R96, puzzle: Exclusion NG 2)	12 nM	13.5 nM	–	–	–	9.84 nM
GCAGCUAACACAGAUAUGUGGACAUGAGGAUCACCCAUGUCACAGGAUAUGGACUGGAUUACAGUCCAGAAGGGUGAAUGCUGC [Zipper Style 5] (Eterna round: R96, puzzle: Exclusion NG 3)	8.25 nM	14.2 nM	–	–	–	10.8 nM
ACAAGCAUUUAUAUUUUAAAAUUUUAUCGUCUUAUAAUUACAUGAGGAUCACCCAUGUAUAAAGGGUGAAUAAUAAU [JR_Sensorv2_tov2_Sub550] (Eterna round: R96, puzzle: Sensor v2, turn-off variant 2)	93.9 nM	91.8 nM	–	–	–	203 nM
CGGGCCGGCCUUCCGGCCGGCCCGACAUGAGGAUCACCCAUGUAGGAUAUCCCGGCUGCCGGCCGGGAGAAGGGCGUGCGUCCG [-50.4, -49.4 kcal, 14% A] (Eterna round: R96, puzzle: Exclusion NG 3)	151 nM	137 nM	–	–	–	87.8 nM
GUAUAUAGUGUGAGGAUAUGCUGGUCCUUGGAUCAGCAGAAGGCACAUGAGGAUCACCCAUGUAGUUUAUUAUU [Mat - Exclusion 4 - JL Mod - D9] (puzzle: Brourd's mod of Exclusion 4)	–	–	–	24.1 nM	–	–
CUCUUGUCAGGAUAUUAUGGACGAUAGCAGGACUACGUCAGUGAGAAGGGACAUGAGGAUCACCCAUGUAAAAU [Anqubi] (puzzle: Exclusion 4)	–	–	–	72.6 nM	–	–
GGGCUGUCAGGAUAUACAUGAGGAUCACCCAUGUCGAGCUGUGAUAGGGCAAGAGUAGGUAGAAGGGACGAGAG [JR_Exclu3_Sub042] (puzzle: Exclusion 3)	–	–	–	30.5 nM	–	–
AUUGUUUAUGUAGGAUAUGCCUGGCGUGCCUUUGCAGAAGGACAUGAGGAUCACCCAUGUAACAUGAGGCUCACCCAUGUCGCG [salish99_ExNG1_r04_113] (Eterna round: R96, puzzle: Exclusion NG 1)	297 nM	333 nM	–	–	–	184 nM
AACAGUACAGGAUAUACAUGAGGAUCACCCAUGUGAGAAUUAAGUGGCGAACCACAAAGUAGAAGGGUACUGGA [Mat - Exclusion 3 - JL mod - D1] (Eterna round: R96, puzzle: Exclusion 3)	98.2 nM	46.3 nM	–	–	–	38.5 nM
UUUUUUGUUGUGAGGAUAUCGUUGUGGAUGUGGAUCGAGAAGGCACAUGAGGAUCACCCAUGUUUGUUGUGGUU [JR_BMOE4_Sub085] (puzzle: Brourd's mod of Exclusion 4)	–	–	–	86.7 nM	–	–
UGUUUAUAUGAAGGAUAUACUUAACAUGAGGAUCACCCAUGUGGUGUUGUGAGUGAGUGAGUUUAGUAGAAGGUCAAGUAUUUU [JMF's solution 54] (Eterna round: R96, puzzle: Exclusion NG 2)	681 nM	395 nM	–	–	–	373 nM
UUAUACAAGCAAAGAUCCCACAUGAGGAUCACCCAUGUGCUCGUCUUAUAAGGAACUGUGACGAAAGUCACGGUUCC [Mat - Sensor, turn-off var - Eli Mod - D100] (Eterna round: R97, puzzle: Sensor, turn-off variant 1)	36.2 nM	37.2 nM	–	–	–	–
CGGAAAUCCAAGGAUAUGCUAGACGAAAGUCUAGCAGAAGGUGGAACAUGAGGAUCACCCAUGUGUCCAAUCCG [Mat - Exclusion 6 - Eli Mod - D25] (Eterna round: R97, puzzle: Exclusion 6)	19.1 nM	14.5 nM	–	–	–	–
ACAAAUCAUGUAGGAUAUGCGUGGCGAAGCUAUGCAGAAGGACAUGAGGAUCACCCAUGUGCUUCCGUCUGCGUACAGACGGUA [Mat - Exclusion NG 1 - Mod of JL - D16] (Eterna round: R96, puzzle: Exclusion NG 1)	75.3 nM	91.5 nM	–	–	–	64.6 nM
CCAAGCUUUUUCAUUAACAACAUGAGGAUCACCCAUGUGUAAGCUAUUAGGUUUGGGCUCUUUAGUGCUCGUCUUAU [JR_STOV1_Sub041] (Eterna round: R97, puzzle: Sensor, turn-off variant 1)	14.5 nM	13.5 nM	–	–	–	–
UUGUUAUAUGUAGGAUAUGCGUAUUAUUAUUAUGCAGAAGGACAUGAGGAUCACCCAUGUAUAUUAUUAUUAUAUAUUAUAUAU [Title] (Eterna round: R96, puzzle: Exclusion NG 1)	–	–	–	–	–	21.9 nM
GACCGGACGUGGUCAGGUAACAUGAGGAUCACCCAUGUAGGUCUAGGAACAAGCUUUUUGAAAGCUCGUCUUAUAAA [JR_SV3TOV1_Sub058] (puzzle: Sensor v3, turn-off variant 1)	–	–	56.7 nM	33.6 nM	69.3 nM	–
CGAUGACCGGUGAGGAUAUCGUGUUCGAAAGAACGUGAGAAGGCACAUGAGGAUCACCCAUGUGAUCCUCAUCG [Omei Ex4B A33] (Eterna round: R97, puzzle: Brourd's mod of Exclusion 4)	25.9 nM	18.2 nM	–	–	–	–
UUUUAACAAGCGAGGUCCCACAUGAGGAUCACCCAUGUAGGUCAUGGAUUCCAUGGUCUUUUUGCUCGUCUUGUGUG [jl TITIN mod 9] (Eterna round: R97, puzzle: Sensor, turn-off variant 1)	32.2 nM	31.6 nM	–	–	–	–
CCUAGGUUAGGAUAUCUCGAUGUGGCAAAGGGUCCAUAUCGGGAGAAGGAACAUGAGGAUCACCCAUGUGGAGC [Eternabot (Original) Solution 42] (Eterna round: R97, puzzle: Exclusion 4)	159 nM	57 nM	–	–	–	–
UGCAUGCUAGGAUAUACGGGACAUUAGGGUUCGUCGUGUGGACAUGAGGAUCACCCAUGUAGAAGGAGCGUGCU [Mod3 of JL-ex2-2.15 mat747 mod] (puzzle: Exclusion 2)	–	–	–	78.2 nM	–	–
AGAGAAUAGUCAGGAUAUGAGAAUAGAUAGAGCUCAGAAGGGACACAUGAGGAUCACCCAUGUGAAGUCUUGAGGCUGCGUGGA [Prohibition 20 - Jieux - Exclusion NG 1] (Eterna round: R96, puzzle: Exclusion NG 1)	–	–	–	–	–	11.3 nM
AAUUAGUGAGGAUAUACUAACAGUGGUAGUAGAUAGUGGAUGUAGAAGGCACAUGAGGAUCACCCAUGUUAUAA [EX4 #52] (Eterna round: R97, puzzle: Exclusion 4)	26 nM	43.7 nM	–	–	–	–
GGUUGGCGAGGAUAUACAUGAGGAUCACCCAUGUGAGAGAAGAAAGUGAGGAAGAAAAGUAGAAGGCGCUGACG [salish99_ex3_r3_004] (puzzle: Exclusion 3)	–	–	133 nM	59 nM	62.4 nM	–
GUCAUGUUAGGAUAUUUCCCAGCUGAGACUACAGAUUGUAGGAAGAAGGAACAUGAGGAUCACCCAUGUGAAAA [Eternabot (L2) Solution 28] (Eterna round: R97, puzzle: Exclusion 4)	36.6 nM	39 nM	–	–	–	–
